From patent US20230265151A1, “GIP/GLP1 CO-AGONIST COMPOUNDS” (priority 2020, published 2023)
Changes are numbered by the printed parent chain. *1 amine or outer side, *2 acyl side, *3 side chain or, on linkers, in order; H or OH if unused. Where no end group is shown, it is not given here. Side-chain parts run from the residue outwards. [ ]: non-standard residue; d: D form. The star is where a group is joined. αMePhe(2-F) = C[C@](N)(Cc1ccccc1F)C(=O)O; γGlu = O=C(O)[C@H](CCC(=O)[*:2])N[*:1]; C14 diacid = O=C(O)CCCCCCCCCCCCC(=O)*; εLys = N[C@@H](CCCCN[*:1])C(=O)[*:2]; αMeY = C[C@](N)(Cc1ccc(O)cc1)C(=O)O; αMeL = CC(C)C[C@](C)(N)C(=O)O; Orn = NCCC[C@H](N)C(=O)O; Dap = NC[C@H](N)C(=O)O; AEEA = NCCOCCOCC(=O)O; Aib = CC(C)(N)C(=O)O

T1: human GIP receptor (human) (UniProt P48546)
T1 sequence (looked up): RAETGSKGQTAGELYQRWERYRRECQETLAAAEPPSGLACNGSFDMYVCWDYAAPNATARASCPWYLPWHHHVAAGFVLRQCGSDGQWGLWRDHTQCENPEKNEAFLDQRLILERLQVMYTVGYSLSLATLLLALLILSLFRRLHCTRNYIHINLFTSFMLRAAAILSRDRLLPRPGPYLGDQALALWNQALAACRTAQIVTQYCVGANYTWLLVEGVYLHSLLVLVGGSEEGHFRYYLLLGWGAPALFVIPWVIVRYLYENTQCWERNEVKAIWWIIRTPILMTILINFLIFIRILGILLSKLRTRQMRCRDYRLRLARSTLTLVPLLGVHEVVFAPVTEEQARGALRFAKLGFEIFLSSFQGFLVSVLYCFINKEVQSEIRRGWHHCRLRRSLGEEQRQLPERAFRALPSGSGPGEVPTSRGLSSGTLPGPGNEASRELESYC

T2: human glucose-dependent insulinotropic polypeptide (GIP) receptor (human, UniProt P48546 22-466)
T2 sequence (looked up): T1 sequence (looked up)

T3: human GIP receptor (human, UniProt P48546 22-466)
T3 sequence (looked up): T1 sequence (looked up)

B1: Example 413 (peptide)
peptide: YXEGTXTSDXXIXLDXKAQXKFIXXLIXGGPSSGAPPPS
modifications: Y-Aib-EGT-αMeF(2F)-TSD-4Pal-Aib-I-αMeL-LD-Orn-K((2-[2-(2-Amino-ethoxy)-ethoxy]-acetyl)2-(γ-Glu)-CO-(CH2)10-CH3)AQ-Aib-K((2-[2-(2-Amino-ethoxy)-ethoxy]-acetyl)2-(γ-Glu)-CO-(CH2)10-CH3)FI-(D-Glu)-αMeY-LI-Orn-GGPSSGAPPPS-NH2
B2: Example 427 (peptide)
peptide: B1 peptide with K21E, X28K
modifications: Y-Aib-EGT-αMeF(2F)-TSD-4Pal-Aib-I-αMeL-LD-Orn-K((2-[2-(2-Amino-ethoxy)-ethoxy]-acetyl)-(γ-Glu)-CO-(CH2)10-CH3)AQ-Aib-EFI-(D-Glu)-αMeY-LIK((2-[2-(2-Amino-ethoxy)-ethoxy]-acetyl)-(γ-Glu)-CO-(CH2)10-CH3)GGPSSGAPPPS-NH2
B3: Example 423 (peptide)
peptide: B1 peptide with K21E, X28K
modifications: Y-Aib-EGT-αMeF(2F)-TSD-4Pal-Aib-I-αMeL-LD-Orn-K((2-[2-(2-Amino-ethoxy)-ethoxy]-acetyl)3-(γ-Glu)-CO-(CH2)10-CH3)AQ-Aib-EFI-(D-Glu)-αMeY-LIK((2-[2-(2-Amino-ethoxy)-ethoxy]-acetyl)3-(γ-Glu)-CO-(CH2)10-CH3)GGPSSGAPPPS-NH2
B4: Example 433 (peptide)
peptide: B1 peptide
modifications: Y-Aib-EGT-αMeF(2F)-TSD-4Pal-Aib-I-αMeL-LD-Orn-K((2-[2-(2-Amino-ethoxy)-ethoxy]-acetyl)3-(γ-Glu)-CO-(CH2)10-CH3)AQ-Aib-K((2-[2-(2-Amino-ethoxy)-ethoxy]-acetyl)3-(γ-Glu)-CO-(CH2)10-CH3)FI-(D-Glu)-αMeY-LI-Orn-GGPSSGAPPPS-NH2
B5: Example 465 (peptide)
peptide: B1 peptide with K21E, X28K
modifications: Y-Aib-EGT-αMeF(2F)-TSD-4Pal-Aib-I-αMeL-LD-Orn-K((2-[2-(2-Amino-ethoxy)-ethoxy]-acetyl)-Aoc-CO-(CH2)12-CO2H)AQ-Aib-EFI-(D-Glu)-αMeY-LIK(((2-[2-(2-Amino-ethoxy)-ethoxy]-acetyl)-Aoc-CO-(CH2)12-CO2H)GGPSSGAPPPS-NH2)
B6: Example 201 (peptide)
peptide: Y[Aib]EGT[αMePhe(2-F)]TSDV[Dap]I[αMeL]LD[Orn]K([AEEA-AEEA-γGlu-C14 diacid])AQ[Aib]EFI[dE][αMeY]LIEGGK([AEEA-AEEA-γGlu-C14 diacid])SSGAPPPS-NH2
modifications: N-terminus assumed
SMILES: CC[C@H](C)[C@H](NC(=O)[C@H](CC(C)C)NC(=O)[C@](C)(Cc1ccc(O)cc1)NC(=O)[C@@H](CCC(=O)O)NC(=O)[C@@H](NC(=O)[C@H](Cc1ccccc1)NC(=O)[C@H](CCC(=O)O)NC(=O)C(C)(C)NC(=O)[C@H](CCC(N)=O)NC(=O)[C@H](C)NC(=O)[C@H](CCCCNC(=O)COCCOCCNC(=O)COCCOCCNC(=O)CC[C@H](NC(=O)CCCCCCCCCCCCC(=O)O)C(=O)O)NC(=O)[C@H](CCCN)NC(=O)[C@H](CC(=O)O)NC(=O)[C@H](CC(C)C)NC(=O)[C@](C)(CC(C)C)NC(=O)[C@@H](NC(=O)[C@H](CN)NC(=O)[C@@H](NC(=O)[C@H](CC(=O)O)NC(=O)[C@H](CO)NC(=O)[C@@H](NC(=O)[C@](C)(Cc1ccccc1F)NC(=O)[C@@H](NC(=O)CNC(=O)[C@H](CCC(=O)O)NC(=O)C(C)(C)NC(=O)[C@@H](N)Cc1ccc(O)cc1)[C@@H](C)O)[C@@H](C)O)C(C)C)[C@@H](C)CC)[C@@H](C)CC)C(=O)N[C@@H](CCC(=O)O)C(=O)NCC(=O)NCC(=O)N[C@@H](CCCCNC(=O)COCCOCCNC(=O)COCCOCCNC(=O)CC[C@H](NC(=O)CCCCCCCCCCCCC(=O)O)C(=O)O)C(=O)N[C@@H](CO)C(=O)N[C@@H](CO)C(=O)NCC(=O)N[C@@H](C)C(=O)N1CCC[C@H]1C(=O)N1CCC[C@H]1C(=O)N1CCC[C@H]1C(=O)N[C@@H](CO)C(N)=O
B7: Example 212 (peptide)
peptide: B1 peptide with X10V, K21E, X28E, P31K
modifications: Aib2, αMeF(2F)6, αMeS11, αMeL13, Orn16, K17(Z), Aib20, D-Glu24, αMeY25, K31(Z), C-terminal NH2; Z = AEEA2-(γ-Glu)-CO-(CH2)12-CO2H
B8: Example 165 (peptide)
peptide: Y[Aib]EGT[αMePhe(2-F)]TSDV[Aib]I[αMeL]LD[Orn]K([εLys-εLys-γGlu-C14 diacid])AQ[Aib]EFI[dE][αMeY]LIEGGK([εLys-εLys-γGlu-C14 diacid])SSGAPPPS-NH2
modifications: N-terminus assumed
SMILES: CC[C@H](C)[C@H](NC(=O)[C@H](CC(C)C)NC(=O)[C@](C)(Cc1ccc(O)cc1)NC(=O)[C@@H](CCC(=O)O)NC(=O)[C@@H](NC(=O)[C@H](Cc1ccccc1)NC(=O)[C@H](CCC(=O)O)NC(=O)C(C)(C)NC(=O)[C@H](CCC(N)=O)NC(=O)[C@H](C)NC(=O)[C@H](CCCCNC(=O)[C@@H](N)CCCCNC(=O)[C@@H](N)CCCCNC(=O)CC[C@H](NC(=O)CCCCCCCCCCCCC(=O)O)C(=O)O)NC(=O)[C@H](CCCN)NC(=O)[C@H](CC(=O)O)NC(=O)[C@H](CC(C)C)NC(=O)[C@](C)(CC(C)C)NC(=O)[C@@H](NC(=O)C(C)(C)NC(=O)[C@@H](NC(=O)[C@H](CC(=O)O)NC(=O)[C@H](CO)NC(=O)[C@@H](NC(=O)[C@](C)(Cc1ccccc1F)NC(=O)[C@@H](NC(=O)CNC(=O)[C@H](CCC(=O)O)NC(=O)C(C)(C)NC(=O)[C@@H](N)Cc1ccc(O)cc1)[C@@H](C)O)[C@@H](C)O)C(C)C)[C@@H](C)CC)[C@@H](C)CC)C(=O)N[C@@H](CCC(=O)O)C(=O)NCC(=O)NCC(=O)N[C@@H](CCCCNC(=O)[C@@H](N)CCCCNC(=O)[C@@H](N)CCCCNC(=O)CC[C@H](NC(=O)CCCCCCCCCCCCC(=O)O)C(=O)O)C(=O)N[C@@H](CO)C(=O)N[C@@H](CO)C(=O)NCC(=O)N[C@@H](C)C(=O)N1CCC[C@H]1C(=O)N1CCC[C@H]1C(=O)N1CCC[C@H]1C(=O)N[C@@H](CO)C(N)=O
B9: Example 164 (peptide)
peptide: Y[Aib]EGT[αMePhe(2-F)]TSDV[Aib]I[αMeL]LD[Orn]K([εLys-γGlu-C14 diacid])AQ[Aib]EFI[dE][αMeY]LIEGGK([εLys-γGlu-C14 diacid])SSGAPPPS-NH2
modifications: N-terminus assumed
SMILES: CC[C@H](C)[C@H](NC(=O)[C@H](CC(C)C)NC(=O)[C@](C)(Cc1ccc(O)cc1)NC(=O)[C@@H](CCC(=O)O)NC(=O)[C@@H](NC(=O)[C@H](Cc1ccccc1)NC(=O)[C@H](CCC(=O)O)NC(=O)C(C)(C)NC(=O)[C@H](CCC(N)=O)NC(=O)[C@H](C)NC(=O)[C@H](CCCCNC(=O)[C@@H](N)CCCCNC(=O)CC[C@H](NC(=O)CCCCCCCCCCCCC(=O)O)C(=O)O)NC(=O)[C@H](CCCN)NC(=O)[C@H](CC(=O)O)NC(=O)[C@H](CC(C)C)NC(=O)[C@](C)(CC(C)C)NC(=O)[C@@H](NC(=O)C(C)(C)NC(=O)[C@@H](NC(=O)[C@H](CC(=O)O)NC(=O)[C@H](CO)NC(=O)[C@@H](NC(=O)[C@](C)(Cc1ccccc1F)NC(=O)[C@@H](NC(=O)CNC(=O)[C@H](CCC(=O)O)NC(=O)C(C)(C)NC(=O)[C@@H](N)Cc1ccc(O)cc1)[C@@H](C)O)[C@@H](C)O)C(C)C)[C@@H](C)CC)[C@@H](C)CC)C(=O)N[C@@H](CCC(=O)O)C(=O)NCC(=O)NCC(=O)N[C@@H](CCCCNC(=O)[C@@H](N)CCCCNC(=O)CC[C@H](NC(=O)CCCCCCCCCCCCC(=O)O)C(=O)O)C(=O)N[C@@H](CO)C(=O)N[C@@H](CO)C(=O)NCC(=O)N[C@@H](C)C(=O)N1CCC[C@H]1C(=O)N1CCC[C@H]1C(=O)N1CCC[C@H]1C(=O)N[C@@H](CO)C(N)=O

molecular target: hGLP-1R (Homo sapiens, UniProt P43220); experiment: cell-based or functional assay

| Binder | cAMP EC50 [nM] | cAMP Emax [%] |
| --- | --- | --- |
| B1 | 0.234 | 96.9 |
| B2 | 0.206 | 109 |
| B3 | 0.0721 | 105 |
| B4 | 0.128 | 102 |
| B5 | 0.413 | 98.6 |

molecular target: T1, human GIP receptor (human); experiment: cell-based or functional assay

| Binder | cAMP EC50 [nM] | cAMP Emax [%] |
| --- | --- | --- |
| B1 | 0.0146 | 101 |
| B2 | 0.0132 | 95.9 |
| B3 | 0.00658 | 104 |
| B4 | 0.00972 | 94 |
| B5 | 0.0174 | 94.9 |

molecular target: human glucagon receptor (human) (UniProt P47871); experiment: cell-based or functional assay

| Binder | cAMP EC50 [nM] |
| --- | --- |
| B1 | > 9950 |
| B2 | > 9950 |
| B3 | > 9950 |
| B4 | > 9950 |
| B5 | > 9950 |

molecular target: T2, human glucose-dependent insulinotropic …; experiment: cell-based or functional assay

| Binder | cAMP EC50 [nM] | cAMP Emax [%] |
| --- | --- | --- |
| B6 | 0.188 | 92.2 |
| B7 | 0.0385 | 100 |
| B8 | 0.0442 | 96.1 |
| Y[Aib]EGT[αMePhe(2-F)]TSDV[Aib]I[αMeL]LD[Orn]K([AEEA-AEEA-εLys-C14 diacid])AQ[Aib]EFI[dE][αMeY]LIEGGK([AEEA-AEEA-εLys-C14 diacid])SSGAPPPS-NH2 [Example 163] | 0.0427 | 98.2 |
| B9 | 0.0464 | 95.8 |

molecular target: human glucagon-like peptide-1 (GLP-1) receptor (human, UniProt P43220 24-463); experiment: cell-based or functional assay

| Binder | cAMP EC50 [nM] | cAMP Emax [%] |
| --- | --- | --- |
| B6 | 0.487 |  |
| B7 | 0.265 |  |
| B8 | 0.291 |  |
| Y[Aib]EGT[αMePhe(2-F)]TSDV[Aib]I[αMeL]LD[Orn]K([AEEA-AEEA-εLys-C14 diacid])AQ[Aib]EFI[dE][αMeY]LIEGGK([AEEA-AEEA-εLys-C14 diacid])SSGAPPPS-NH2 [Example 163] | 0.199 | 86.3 |
| B9 | 0.236 |  |

molecular target: T3, human GIP receptor; experiment: cell-based or functional assay

| Binder | cAMP EC50 (1.0% HSA) [nM] | cAMP Emax (1.0% HSA) [%] |
| --- | --- | --- |
| B1 | 0.422 |  |
| B2 | 2.04 | 92.4 |
| B3 | 0.294 | 89.7 |
| B4 | 0.136 |  |
| B5 | 3.63 | 94.4 |

molecular target: human GLP-1 receptor (human, UniProt P43220 24-463); experiment: cell-based or functional assay

| Binder | cAMP EC50 (1.0% HSA) [nM] |
| --- | --- |
| B1 | 5.47 |
| B2 | 25.1 |
| B3 | 4.74 |
| B4 | 2.63 |
| B5 | 73.2 |
